{"source": "patent US20260098102A1", "about": "(NATIONAL UNIVERSITY CORPORATION KOBE UNIVERSITY, published 2026)", "binders": {"B1": {"name": "KWAR23 (antibody, human IgG4 S228P, kappa, V domains shown)", "VH": "EVQLQQSGAELVKPGASVKLSCTASGFNIKDYYIHWVQQRTEQGLEWIGRIDPEDGETKYAPKFQDKATITADTSSNTAYLHLSSLTSEDTAVYYCARWGAYWGQGTLVTVSA", "VL": "QIVLTQSPAIMSASPGEKVTLTCSASSSVSSSYLYWYQQKPGSSPKLWIYSTSNLASGVPARFSGSGSGTSYSLTISSMEAEDAASYFCHQWSSYPRTFGAGTKLELKR", "notes": "IgG4Pro heavy chain; also called KWAR23_hG4Pro / KWAR23_hK"}}, "key": {"[1]": {"target": "T1, human SIRPB (human, UniProt O00241 30-398)", "T1 construct": "whole, on cells; FLAG-tagged (pFLAG V5-DEST), on CHO-K1 cells; also called SIRPβ1; signal regulatory protein β1", "T1 sequence (O00241 30-398)": "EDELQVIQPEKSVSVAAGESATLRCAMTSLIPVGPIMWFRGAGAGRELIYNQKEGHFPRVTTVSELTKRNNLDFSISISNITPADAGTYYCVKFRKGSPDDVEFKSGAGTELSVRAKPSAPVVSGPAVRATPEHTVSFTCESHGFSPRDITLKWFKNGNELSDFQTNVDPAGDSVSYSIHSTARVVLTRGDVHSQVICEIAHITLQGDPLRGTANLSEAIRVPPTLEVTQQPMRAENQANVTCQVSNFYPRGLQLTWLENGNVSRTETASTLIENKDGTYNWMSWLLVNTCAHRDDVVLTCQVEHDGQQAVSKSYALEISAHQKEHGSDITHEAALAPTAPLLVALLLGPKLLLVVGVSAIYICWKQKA", "assay": "flow cytometry on CHO-K1 cells expressing FLAG-tagged human SIRPB; PE anti-human IgG; MFI standardized to secondary antibody alone", "experimental": "SIRPβ1 (signal regulatory protein β1: the amino acid sequence thereof is published as RefSeq accession number NP_006056) and SIRPγ (signal regulatory protein γ: the amino acid sequence thereof is published as RefSeq accession number NP_061026) are molecules belonging to the SIRPA family. In the present invention, “SIRPα” may be referred to as “SIRPA,” “SIRPβ1” may be referred to as […] and “SIRPγ” may be referred to as “SIRPG.” CHO-K1 cells were prepared in a 10% FBS-containing Ham's F-12K medium at 3.3×10⁵ cells/mL and cultured overnight at 37° C. under a 5% CO₂ condition. pFLAG V5-DEST-human SIRPβ, pFLAG V5-DEST-human SIRPG, or pFLAG V5-DEST was introduced into the cells using Lipofectamine LTX (Invitrogen), and cells were cultured in a 10% FBS-containing Ham's F-12K medium at 37° C. under a 5% CO₂ condition for 24 hours. The obtained introduced cells were collected and seeded on a 96-well plate. After the culture supernatant was removed, 100 μL per well of various anti-human SIRPA antibodies or various control human IgG was added to each of various gene introduced cells at a final concentration of 0 to 10,000 ng/mL, and the mixture was allowed to stand at 4° C. for 25 minutes. After the mixture was centrifuged, the supernatant was removed, and cells were washed twice with 5% FBS-containing PBS. After the mixture was centrifuged, the supernatant was removed, 50 μL per well of a 1/400 diluted solution of PE Mouse anti-Human IgG antibody (BioLegend) was added, and the mixture was allowed to stand at 4° C. for 25 minutes. After the mixture was centrifuged, the supernatant was removed, and cells were washed twice with 5% FBS-containing PBS.\n(§1) After the mixture was centrifuged, and the supernatant was removed, cells were suspended in 100 μL per well of 1× BD Stabilizing Fixative (Becton Dickinson), and the cell count was measured by flow cytometry (FACS Canto II: Becton Dickinson). For data analysis, FlowJo (TreeStar) was used. Cells were characterized by detecting forward scattered (FSC) light and side-scattered (SSC) light, and then the mean fluorescence intensity of PE was calculated. Binding of various antibodies to the family molecules was calculated by standardizing the fluorescence intensity using the mean fluorescence intensity of a sample in which the secondary antibody alone was allowed to react."}, "[2]": {"target": "T2, SIRPA_V2_IgV (human)", "T2 construct": "Secreted recombinant protein; The crystal model held residues 33 to 143 of human SIRPA Variant 2", "T2 sequence (chain, as listed by the source limits assumed)": "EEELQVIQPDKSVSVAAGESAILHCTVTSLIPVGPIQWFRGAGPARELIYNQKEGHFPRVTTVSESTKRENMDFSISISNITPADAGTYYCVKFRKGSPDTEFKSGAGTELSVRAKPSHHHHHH", "assay": "SPR Biacore T200, antibody captured on anti-human IgG (Fc), SIRPA_V2_IgV as analyte (0.25 to 16 nM), 1:1 model", "experimental": "(§2) The dissociation constants were measured by a capture method comprising capturing each antibody as a ligand to an Anti-Human IgG (Fc) antibody immobilized using Human Antibody Capture Kit (GE Healthcare Bioscience Corp.) and measuring an antigen as an analyte, using Biacore T200 (GE Healthcare Bioscience Corp.). HBS-EP+ (GE Healthcare Bioscience Corp.) was used as a running buffer, and CM5 (GE Healthcare Bioscience Corp.) was used as a sensor chip. Onto the chip, 2 μg/mL of various antibodies were added at 10 μL/min for 30 seconds, then a serially diluted solution (0.25 to 16 nM) of the human SIRPA protein as an antigen was added at a flow rate of 30 μL/min for 120 seconds, and subsequently the dissociation phase for 600 seconds was monitored. As a regenerant, 3 M magnesium chloride (GE Healthcare Bioscience Corp.) was added at a flow rate of 20 μL/min for 30 seconds. For data analysis, a binding rate constant (ka), a dissociation rate constant (kd), and a dissociation constant (KD; KD=kd/ka) were calculated using a 1:1 binding model."}, "[3]": {"target": "T3, human SIRPA_V2 protein (human, UniProt P78324 31-504)", "T3 construct": "Expressed on 293α cells from pcDNA3.2 V5-DEST or pFLAG V5-DEST (FLAG-tagged) vectors; also called human SIRPA Variant 2; ECD variant (full-length, amino acids 1 to 504)", "T3 sequence (P78324 other isoform, or with tags, fused parts or gaps limits assumed)": "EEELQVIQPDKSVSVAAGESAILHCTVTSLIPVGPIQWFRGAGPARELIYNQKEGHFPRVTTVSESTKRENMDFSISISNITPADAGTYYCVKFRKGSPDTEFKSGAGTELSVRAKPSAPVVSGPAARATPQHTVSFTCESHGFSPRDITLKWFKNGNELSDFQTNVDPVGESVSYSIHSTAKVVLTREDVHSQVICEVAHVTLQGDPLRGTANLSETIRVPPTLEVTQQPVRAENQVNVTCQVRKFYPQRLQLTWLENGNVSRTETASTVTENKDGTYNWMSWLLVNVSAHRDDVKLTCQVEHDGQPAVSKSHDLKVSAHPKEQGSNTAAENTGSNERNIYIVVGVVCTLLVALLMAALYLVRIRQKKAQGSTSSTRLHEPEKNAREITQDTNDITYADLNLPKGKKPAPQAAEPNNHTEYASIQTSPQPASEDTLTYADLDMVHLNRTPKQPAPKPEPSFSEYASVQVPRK", "assay": "blocking cell-based ELISA: peroxidase-labeled CD47-Fc (1 µg/mL) on 293α cells expressing SIRPA_V2", "experimental": "(§3) After the culture supernatant of the human SIRPA_V1 or V2 expression vector-introduced 293 cells prepared in Example 9)-1 was removed, 50 μL per well of various anti-SIRPA antibodies or various control Human IgG diluted with 5% FBS-containing PBS to a final concentration of 0 to 10,000 ng/ml was added to each of pcDNA3.2 V5-DEST-SIRPA_V1 or V2-introduced 293α cells, immediately followed by addition of 50 µL per well of peroxidase-labeled CD47-Fc prepared with 5% FBS-containing PBS at 1 μg/mL, and the mixture was allowed to stand at 4° C. for one hour. Thereafter, the SIRPA-CD47 binding inhibitory activity was evaluated in the same manner as in 1)-6-3."}, "[4]": {"target": "T4, SIRPA_V1_IgV (human, UniProt P78324 31-149)", "T4 construct": "Secreted recombinant protein from FreeStyle 293F cells", "T4 sequence (P78324 other isoform, or with tags, fused parts or gaps limits assumed)": "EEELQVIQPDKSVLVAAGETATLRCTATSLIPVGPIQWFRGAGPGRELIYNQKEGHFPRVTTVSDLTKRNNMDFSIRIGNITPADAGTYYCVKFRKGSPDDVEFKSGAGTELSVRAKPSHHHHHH", "assay": "SPR Biacore T200, antibody captured on anti-human IgG (Fc), SIRPA_V1_IgV as analyte (0.25 to 16 nM), 1:1 model", "experimental": "as §2"}, "[5]": {"target": "T5, human SIRPA_V1 protein (human, UniProt P78324 31-504)", "T5 construct": "Expressed on 293α cells from pcDNA3.2 V5-DEST or pFLAG V5-DEST (FLAG-tagged) vectors; also called human SIRPA Variant 1; hSIRPA V1", "T5 sequence (P78324 31-504 limits assumed)": "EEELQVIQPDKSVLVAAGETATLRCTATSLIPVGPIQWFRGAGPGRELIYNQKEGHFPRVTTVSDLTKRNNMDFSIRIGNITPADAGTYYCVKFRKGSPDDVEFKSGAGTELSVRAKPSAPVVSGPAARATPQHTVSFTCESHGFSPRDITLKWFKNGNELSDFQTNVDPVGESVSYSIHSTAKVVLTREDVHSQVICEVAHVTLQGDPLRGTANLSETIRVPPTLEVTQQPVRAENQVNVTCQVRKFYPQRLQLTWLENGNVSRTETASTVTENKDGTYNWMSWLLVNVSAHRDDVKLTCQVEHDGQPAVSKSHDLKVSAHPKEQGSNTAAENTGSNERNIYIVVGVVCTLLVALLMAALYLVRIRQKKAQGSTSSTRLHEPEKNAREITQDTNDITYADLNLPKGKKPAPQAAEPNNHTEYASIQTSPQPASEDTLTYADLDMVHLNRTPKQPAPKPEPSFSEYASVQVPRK", "assay": "blocking cell-based ELISA: peroxidase-labeled CD47-Fc (1 µg/mL) on 293α cells expressing SIRPA_V1", "experimental": "as §3"}, "[6]": {"target": "T6, human SIRPG (human, UniProt Q9P1W8 29-387)", "T6 construct": "whole, on cells; FLAG-tagged (pFLAG V5-DEST), on CHO-K1 cells; also called SIRPγ; signal regulatory protein γ", "T6 sequence (Q9P1W8 29-387)": "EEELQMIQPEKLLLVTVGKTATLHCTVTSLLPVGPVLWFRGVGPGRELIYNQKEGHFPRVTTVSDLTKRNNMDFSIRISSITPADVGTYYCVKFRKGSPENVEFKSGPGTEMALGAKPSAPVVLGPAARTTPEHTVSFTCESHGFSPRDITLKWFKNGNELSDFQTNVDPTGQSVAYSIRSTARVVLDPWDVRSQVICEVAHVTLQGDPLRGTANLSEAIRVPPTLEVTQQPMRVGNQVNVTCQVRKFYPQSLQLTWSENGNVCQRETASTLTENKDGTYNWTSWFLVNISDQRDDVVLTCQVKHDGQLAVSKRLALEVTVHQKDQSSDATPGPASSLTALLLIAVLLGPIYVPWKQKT", "assay": "flow cytometry on CHO-K1 cells expressing FLAG-tagged human SIRPG; PE anti-human IgG; MFI standardized to secondary antibody alone", "experimental": "SIRPβ1 (signal regulatory protein β1: the amino acid sequence thereof is published as RefSeq accession number NP_006056) and SIRPγ (signal regulatory protein γ: the amino acid sequence thereof is published as RefSeq accession number NP_061026) are molecules belonging to the SIRPA family. In the present invention, “SIRPα” may be referred to as “SIRPA,” “SIRPβ1” may be referred to as […] and “SIRPγ” may be referred to as “SIRPG.” CHO-K1 cells were prepared in a 10% FBS-containing Ham's F-12K medium at 3.3×10⁵ cells/mL and cultured overnight at 37° C. under a 5% CO₂ condition. pFLAG V5-DEST-human SIRPβ, pFLAG V5-DEST-human SIRPG, or pFLAG V5-DEST was introduced into the cells using Lipofectamine LTX (Invitrogen), and cells were cultured in a 10% FBS-containing Ham's F-12K medium at 37° C. under a 5% CO₂ condition for 24 hours. The obtained introduced cells were collected and seeded on a 96-well plate. After the culture supernatant was removed, 100 μL per well of various anti-human SIRPA antibodies or various control human IgG was added to each of various gene introduced cells at a final concentration of 0 to 10,000 ng/mL, and the mixture was allowed to stand at 4° C. for 25 minutes. After the mixture was centrifuged, the supernatant was removed, and cells were washed twice with 5% FBS-containing PBS. […]\nas §1, with “For data analysis, FlowJo (TreeStar) was used.” left out"}}, "data": [{"binder": "B1", "values": [{"measurement": "binding result", "setting": "[1]", "result": "binds"}, {"measurement": "Kd", "setting": "[2]", "result": 4.46, "unit": "nM"}, {"measurement": "IC50", "setting": "[3]", "result": 2.19, "unit": "µg/mL"}, {"measurement": "Kd", "setting": "[4]", "result": 2.55, "unit": "nM"}, {"measurement": "IC50", "setting": "[5]", "result": 2.24, "unit": "µg/mL"}, {"measurement": "EC50 (read off the curve)", "setting": "[6]", "result": "~0.03", "unit": "µg/mL"}]}]}
